Measured values reported in patent publication US20220073608A1 (JIANGSU HUAIYU PHARMACEUTICAL, published 2022).

T1: human SEMA4D, full length, on CHO-K1 cells (CHO-K1 hSEMA4D) (human, UniProt Q92854 22-862)
T1 construct: whole, on cells; also called human SEMA4D recombinant cells
T1 sequence (looked up): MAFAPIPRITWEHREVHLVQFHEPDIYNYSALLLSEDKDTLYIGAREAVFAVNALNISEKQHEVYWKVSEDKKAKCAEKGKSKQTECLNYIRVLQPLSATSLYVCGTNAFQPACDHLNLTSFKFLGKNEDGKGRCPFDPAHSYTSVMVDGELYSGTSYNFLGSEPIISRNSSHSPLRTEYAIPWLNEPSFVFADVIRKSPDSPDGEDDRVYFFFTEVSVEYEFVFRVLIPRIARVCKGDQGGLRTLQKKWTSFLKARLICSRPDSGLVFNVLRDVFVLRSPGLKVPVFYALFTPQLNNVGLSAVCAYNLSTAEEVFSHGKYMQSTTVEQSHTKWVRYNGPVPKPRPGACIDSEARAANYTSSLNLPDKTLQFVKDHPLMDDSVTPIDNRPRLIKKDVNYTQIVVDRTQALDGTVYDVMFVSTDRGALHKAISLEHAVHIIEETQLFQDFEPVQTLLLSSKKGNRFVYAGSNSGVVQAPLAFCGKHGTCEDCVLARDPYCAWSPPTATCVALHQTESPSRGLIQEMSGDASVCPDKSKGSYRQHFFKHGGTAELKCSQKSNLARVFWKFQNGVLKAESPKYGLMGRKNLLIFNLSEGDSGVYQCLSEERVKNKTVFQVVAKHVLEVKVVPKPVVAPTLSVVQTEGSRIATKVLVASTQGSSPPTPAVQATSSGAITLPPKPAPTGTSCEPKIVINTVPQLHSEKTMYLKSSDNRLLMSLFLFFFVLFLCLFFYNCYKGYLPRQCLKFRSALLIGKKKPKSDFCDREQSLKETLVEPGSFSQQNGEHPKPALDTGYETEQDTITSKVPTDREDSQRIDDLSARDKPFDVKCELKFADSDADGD


Assays:
[1] = molecular target: T1, human SEMA4D, full length, on CHO-K1 …; experiment: competitive FACS, CHO-K1 hSEMA4D cells; unlabelled Ab 6 ug/mL first, competitor Alexa 488-VX15 0.67 ug/mL
Excerpt: The purified hybridoma SEMA4D antibodies and fully human SEMA4D antibody were subjected to competitive flow cytometry (FACS) to analyze whether the epitopes bound by different antibodies competed with that bound by the reference antibody VX15.
(§1) The medium was aspirated, the cells were washed once with PBS buffer (purchased from Invitrogen), and then treated with cell dissociation fluid (TrypLE™ Express Enzyme, purchased from Life technology), and the cells were collected. After the cells counted, the cells were washed once with PBS phosphate buffer, and diluted to 3×10⁶ cells per milliliter, and added to the 96-well FACS reaction plate as 100 μL per well. 2% (w/w) fetal calf serum was added to PBS phosphate buffer as FACS buffer, with which the cells were washed once by centrifugation at 2000 rpm 4° C. 100 μL of the leading antibodies and IgG control diluted to a concentration of 6 μg/mL was added to each well and the plate was incubated for 1 hour on ice. […] Cells were washed 2 times by centrifugation with FACS buffer. The cells were suspended with 200 μL of FACS buffer, and FACS (FACS Verse, purchased from BD) was used to detect and analyze the results.

[2] = molecular target: T2, monkey SEMA4D, full length, on CHO-K1 cells (CHO-K1 cSEMA4D) (monkey); experiment: FACS, CHO-K1 cSEMA4D cells; Ab 0.00427 nM
T2 construct: whole, on cells; also called monkey SEMA4D recombinant cells
Description: (§2) After the cells were counted, they were diluted with PBS to 2×10⁶ cells per milliliter. After washing, 100 μL of diluted and purified leading antibodies was added to each well and the plate was incubated for 1 hour on ice. […] Cells were washed 2 times by centrifugation with FACS buffer. The cells were suspended with 200 μL of FACS buffer, FACS (FACS Verse, purchased from BD) was used to detect and analyze the results.

[3] = molecular target: T2, monkey SEMA4D, full length, on CHO-K1 …; experiment: FACS, CHO-K1 cSEMA4D cells; Ab 13.3 nM
Description: as §2

[4] = molecular target: T1, human SEMA4D, full length, on CHO-K1 …; experiment: FACS, CHO-K1 hSEMA4D cells; Ab 66.7 nM
Description: as §1, with “of diluted and purified” for “of the”, “antibodies” for “antibodies and IgG control diluted to a concentration of 6 μg/mL”

| Binder | inhibition rate (%) [1] [%] | MFI [2] | MFI [3] | MFI [4] |
| --- | --- | --- | --- | --- |
| 37C4F7 (antibody, V domains shown, Mouse monoclonal antibody purified from hybridoma supernatant on protein A) VH: EFQLQQSGPEVVKPGASVKISCKASGYSFTDYNMNWMKQSKGKSLEWIGVINPNYGTTTYNQNFKGKATLTVDQSSSTAYMQLNSLTSEDSAVYYCARDMYYVYAYYTMDYWGQGTSVTVSS VL: DVVMTQTPLSLPVSLGDQASISCRSSQSLVHSNGHTYLHWYLQRPGQSPTLLIYKVSNRFSGVPDRFSGSGSGTDFTLKISRVEAEDLGVYFCSQGTHVPWTFGGGTKLEIK | 20 | 38.2 | 2790 | 4740 |
| 32C8F10 (antibody, V domains shown, Mouse monoclonal antibody purified from hybridoma supernatant on protein A) VH: EVQLQQSGAELVRPGASVKLSCTASGFNIKDEYIHWVKQRPEQGLEWIGWIDPANGHTEYASRFQAKATITADTSSNTAYLQLSSLTSEDTAVYYCTTGDYDGFAYWGQGTLVTVST VL: QIVLTQSPAIMSASPGEKVTISCSARSSVSYMYWYQQKPGSSPKPWIYRTSNLASGVPARFSGSGSGTSYSLTISSMEAEDAATYYCQHYHTYPYTFGGGTKLEIK | 42 | 97.6 | 5590 | 8760 |
| 31C11G2 (antibody, V domains shown, Mouse monoclonal antibody purified from hybridoma supernatant on protein A) VH: EVQLQQSGAELVRPGASVKLSCTASGFNIKDEYIHWVKQRPEQGLEWIGWIDPANGHTEYASRFQAKATITADTSSNTAYLQLSSLTSEDTAVYYCTTGDYDGFVYWGQGTLVTVST VL: QIVLTQSPAIMSASPGEKVTIFCSARSSVSYMYWYQQKPGSSPKPWIYRTSNLASGVPARFSGSGSGTSYSLTISSMEAEDAATYYCQHYHTYPYTFGGGTKLEIK | 44 | 139 | 4390 | 6750 |

More lines, now with the values ahead:

| inhibition rate (%) [1] [%] | MFI [2] | MFI [3] | MFI [4] | Binder |
| --- | --- | --- | --- | --- |
| 25 | 45.4 | 2480 | 4110 | 37F11F9 (antibody, V domains shown, Mouse monoclonal antibody purified from hybridoma supernatant on protein A) VH: EVQLQQSGPVLVKPGASVKMSCKASGYTFTDYYMNWVKQSHGKSLEWIGLINPYSGGSTFNQKFKAKATLTVDKSSSSAYMDLNSLTSEDSAVYYCARVGDGYYGVTHGMDYWGQGTSVTVSS VL: DIVMTPSQKFMSTTVGDRVSITCKASQNVGTAVAWYQQKPGQSPTILIYSASNRYTGVPDRFTGSGSGTDFTLTISNMKSEDLADYFCQQYYIYPFTFAAGTKLELK |
| 21 | 35 | 2800 | 5470 | 38H2E3 (antibody, V domains shown, Mouse monoclonal antibody purified from hybridoma supernatant on protein A) VH: EFQLQQSGPEVVKPGASVKISCKASGYSFTDYNMNWMKQSKGKSLEWIGVISPDYGTTTYNQNFKDKATLTVDQSSSTAYMQLNSLTSEDSAVYYCAKDMYYVYAYYTMDYWGHGTSVTVSS VL: DVVMTQTPLSLPVSLGDQASISCRSSQSLVHSNGHTYLHWYLQRPGQSPTLLIYKVSNRFSGVPDRVSGSGSGTDFTLKISRVEAEDLGVYFCSQGTHVPRTFGGGTKLEIK |
| 42 | 152 | 4580 | 7410 | 31G10C5 (antibody, V domains shown, Mouse monoclonal antibody purified from hybridoma supernatant on protein A) VH: EVQLQQSGAELVRPGASVKLSCTASGFNIKDDYIHWVKQRPEQGLEWIGWIDPANGHIEYASNFQAKATITADTSSNTAYLQLSSLTSEDTAVYYCTTGDYDGFTYWGQGTLVTVST VL: QIVLTQSPAIMSASPGEKVTISCSARSSVSYMYWYQQKPGSSPKPWIYRTSNLASGVPARFSGSGSGTSYSLTISSMEAEDAATYYCQHYHTYPYTFGGGTKLEIK |
| 15 | 92.7 | 2590 | 4120 | 42B7G2 (antibody, V domains shown, Mouse monoclonal antibody purified from hybridoma supernatant on protein A) VH: QVQLQQSGAELARPGASVKLSCKASGYTFTDYGISWVKQRTGQGLEWIGEIYLRNDNSYYNEKFKGKATLTADKSSNTAYMELRSLTSEDSAVYFCARWGDHGNNYEDAMDYWGQGTSVTVSS VL: DIVLTQSPASLAMSLGKRATISCRASESVSIIGSNLIHWYQQKPGQPPKLLIYHASNLETGVPARFSGSGSRTDFTLTIDPVEEDDVAIYYCLQSRKVPYTFGGGTKLEIK |
